The results in this text go back to PMC1513511.

Series [1] has as its target T1, H6MobC221 (pC221 MobC) (plasmid pC221, UniProt Q6V0Y1 1-132).
T1 sequence: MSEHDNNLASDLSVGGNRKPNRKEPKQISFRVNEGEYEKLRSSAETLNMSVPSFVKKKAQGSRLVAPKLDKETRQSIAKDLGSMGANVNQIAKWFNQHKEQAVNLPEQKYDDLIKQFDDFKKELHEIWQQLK
Briefly: SPR. For orientation: SPR reads the build-up and loss of mass on a sensor chip optically.

Series [2] deals with T1, H6MobC221 (pC221 MobC). Briefly: SPR. This is another data set of the same source.

B1: 21Pmut (randomized mcb2 oligoduplex) (dsDNA)
DNA 1: AACGAGAGTAGGTCAATATA
DNA 2: TATATTGACCTACTCTCGTT
Regarding B1, the binding result with H6MobC221 (pC221 MobC) [1] is given as “no binding”.

B2: 21P (mcb2 oligoduplex) (dsDNA)
DNA 1: AACGAAGTGGCTAGAATATA
DNA 2: TATATTCTAGCCACTTCGTT
Broadly, the Kd is a measure of binding affinity in units of concentration. A lower Kd goes with higher affinity. B2 gave a Kd with H6MobC221 (pC221 MobC) [2] of roughly 1800 nM.
